Measurements from patent US20170157251A1 (MacroGenics, published 2017).

Assays:
[1] = target: T1, human CD19 on cells (human, UniProt P15391 20-556); experiment: cell-based or functional assay
T1 sequence (looked up): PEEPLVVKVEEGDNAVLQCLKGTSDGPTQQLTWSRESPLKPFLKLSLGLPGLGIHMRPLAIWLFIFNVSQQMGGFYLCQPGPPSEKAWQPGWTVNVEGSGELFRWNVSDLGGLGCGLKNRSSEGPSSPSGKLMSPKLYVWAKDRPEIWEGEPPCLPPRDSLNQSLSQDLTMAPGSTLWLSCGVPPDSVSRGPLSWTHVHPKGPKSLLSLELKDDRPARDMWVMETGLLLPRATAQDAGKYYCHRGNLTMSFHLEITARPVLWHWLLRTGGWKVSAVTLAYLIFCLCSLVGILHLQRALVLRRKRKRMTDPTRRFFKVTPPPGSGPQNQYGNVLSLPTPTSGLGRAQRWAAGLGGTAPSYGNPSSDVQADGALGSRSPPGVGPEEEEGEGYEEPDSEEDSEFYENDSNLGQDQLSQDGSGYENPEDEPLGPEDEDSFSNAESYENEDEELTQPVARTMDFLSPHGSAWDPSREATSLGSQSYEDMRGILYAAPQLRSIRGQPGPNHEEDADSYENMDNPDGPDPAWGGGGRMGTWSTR

[2] = target: T1, human CD19 on cells; experiment: cell-based or functional assay; remark: listed apart in the source
[3] = target: T2, Cynomolgus CD19-His (cynomolgus monkey, UniProt A0A2K5W8L9 20-292); experiment: SPR (BIAcore), DART-A 0-100 nM, soluble antigen
T2 construct: Soluble antigen in SPR; also called soluble cynomolgus monkey CD19; not shown: His tag
T2 sequence: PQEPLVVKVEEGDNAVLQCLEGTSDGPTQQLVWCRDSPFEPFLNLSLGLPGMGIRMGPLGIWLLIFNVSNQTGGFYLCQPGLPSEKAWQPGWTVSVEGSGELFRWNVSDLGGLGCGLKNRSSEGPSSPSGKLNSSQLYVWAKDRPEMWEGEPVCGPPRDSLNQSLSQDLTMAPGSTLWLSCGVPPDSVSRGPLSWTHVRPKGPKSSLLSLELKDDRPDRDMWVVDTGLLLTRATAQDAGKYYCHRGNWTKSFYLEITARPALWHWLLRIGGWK

[4] = target: T3, Human CD19-His (human, UniProt P15391 20-291, limits assumed); experiment: SPR (BIAcore), DART-A 0-100 nM, soluble antigen
T3 construct: Soluble antigen in SPR; also called soluble human CD19; not shown: His tag
T3 sequence (looked up): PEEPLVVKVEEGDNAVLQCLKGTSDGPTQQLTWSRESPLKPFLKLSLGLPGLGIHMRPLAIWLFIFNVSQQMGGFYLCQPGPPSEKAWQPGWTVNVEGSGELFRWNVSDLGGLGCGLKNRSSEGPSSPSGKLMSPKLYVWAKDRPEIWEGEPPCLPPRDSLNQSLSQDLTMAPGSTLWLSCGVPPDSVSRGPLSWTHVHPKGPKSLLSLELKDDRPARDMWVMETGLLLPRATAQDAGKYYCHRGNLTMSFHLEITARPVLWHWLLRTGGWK

[5] = target: T1, human CD19 on cells; experiment: cell-based or functional assay; remark: listed apart in the source
[6] = target: T4, human CD3 on T cells (human, UniProt P07766 23-207; P04234 22-171); experiment: flow cytometry on human blood leukocytes, CD4+ and CD8+ gate (T cells); detection with biotinylated anti-E-coil/K-coil mAb and streptavidin-PE
T4 construct: also called CD3 on human CD4+ and CD8+ T cells; copies: 1 + 1
T4 sequence (P07766 23-207 limits assumed, chain 1 of 2): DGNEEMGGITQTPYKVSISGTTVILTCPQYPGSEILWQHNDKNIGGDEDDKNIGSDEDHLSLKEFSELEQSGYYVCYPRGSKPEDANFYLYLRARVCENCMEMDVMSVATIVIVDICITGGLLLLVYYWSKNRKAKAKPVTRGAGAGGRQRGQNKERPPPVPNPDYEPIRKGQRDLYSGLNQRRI
T4 sequence (P04234 22-171 limits assumed, chain 2 of 2): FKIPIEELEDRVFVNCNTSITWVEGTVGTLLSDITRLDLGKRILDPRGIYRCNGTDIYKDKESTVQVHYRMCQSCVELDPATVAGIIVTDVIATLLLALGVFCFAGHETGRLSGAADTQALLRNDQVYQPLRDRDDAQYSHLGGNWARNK

[7] = target: T5, cynomolgus monkey CD3 on T cells (cynomolgus monkey, UniProt Q95LI5 22-198; Q95LI8 22-171); experiment: flow cytometry on cynomolgus monkey blood leukocytes, CD4+ and CD8+ gate (T cells); detection with biotinylated anti-E-coil/K-coil mAb and streptavidin-PE
T5 construct: T cells were gated as CD4+ and CD8+; also called CD3 on cynomolgus monkey CD4+ and CD8+ T cells
T5 sequence (Q95LI5 22-198 limits assumed, chain 1 of 2): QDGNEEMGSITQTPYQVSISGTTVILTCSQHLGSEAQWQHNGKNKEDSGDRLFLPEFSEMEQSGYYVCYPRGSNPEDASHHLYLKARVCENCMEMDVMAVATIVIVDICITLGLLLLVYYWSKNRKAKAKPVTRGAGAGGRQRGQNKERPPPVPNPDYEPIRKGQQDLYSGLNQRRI
T5 sequence (Q95LI8 22-171 limits assumed, chain 2 of 2): as the sequence (P04234 22-171 limits assumed, chain 2 of 2) above, with I5V, N15K, I20V, S32T, D33N, I34N, T64A, S74N, V83L, H141R counted along it

[8] = target: T1, human CD19 on cells; experiment: cell-based or functional assay; remark: listed apart in the source
[9] = target: T1, human CD19 on cells; experiment: cell-based or functional assay; remark: listed apart in the source

B1: DART-A (CD19×CD3 bi-specific monovalent Fc diabody) (bispecific antibody)
chain 1: ENVLTQSPATLSVTPGEKATITCRASQSVSYMHWYQQKPGQAPRLLIYDASNRASGVPSRFSGSGSGTDHTLTISSLEAEDAATYYCFQGSVYPFTFGQGTKLEIKGGGSGGGGEVQLVESGGGLVQPGGSLRLSCAASGFTFSTYAMNWVRQAPGKGLEWVGRIRSKYNNYATYYADSVKGRFTISRDDSKNSLYLQMNSLKTEDTAVYYCVRHGNFGNSYVSWFAYWGQGTLVTVSSASTKGEVAACEKEVAALEKEVAALEKEVAALEKGGGDKTHTCPPCPAPEAAGGPSVFLFPPKPKDTLMISRTPEVTCVVVDVSHEDPEVKFNWYVDGVEVHNAKTKPREEQYNSTYRVVSVLTVLHQDWLNGKEYKCKVSNKALPAPIEKTISKAKGQPREPQVYTLPPSREEMTKNQVSLWCLVKGFYPSDIAVEWESNGQPENNYKTTPPVLDSDGSFFLYSKLTVDKSRWQQGNVFSCSVMHEALHNHYTQKSLSLSPGK
chain 2: QAVVTQEPSLTVSPGGTVTLTCRSSTGAVTTSNYANWVQQKPGQAPRGLIGGTNKRAPWTPARFSGSLLGGKAALTITGAQAEDEADYYCALWYSNLWVFGGGTKLTVLGGGGSGGGGQVTLRESGPALVKPTQTLTLTCTFSGFSLSTSGMGVGWIRQPPGKALEWLAHIWWDDDKRYNPALKSRLTISKDTSKNQVFLTMTNMDPVDTATYYCARMELWSYYFDYWGQGTTVTVSSASTKGKVAACKEKVAALKEKVAALKEKVAALKE
chain 3: not shown
notes: Three covalently bonded chains; one CD19 site and one CD3 site; Fc with L234A/L235A, knob/hole, H435R on third chain; also called CD19×CD3 bi-specific molecule; CD19×CD3 bi-specific DART-A
Question: What does the source list for B1?
Answer: mean EC50 of IFN-γ release, CTL assay, purified human T cells with Raji/GF tumor cells (E:T = 10:1), n = 2 [1]: 5.51 pM; mean EC50 of IL-2 release, CTL assay, purified human T cells with Raji/GF tumor cells (E:T = 10:1), n = 2 [1]: 6.32 pM; mean EC50 of TNF-α release, CTL assay, purified human T cells with Raji/GF tumor cells (E:T = 10:1), n = 2 [1]: 3.71 pM; mean EC50 of cytotoxicity, CTL assay, HBL-2 (n = 5), human T cells E:T = 10:1 [1]: 0.11 pM; mean EC50 of cytotoxicity, CTL assay, Jeko-1 (n = 3), human T cells E:T = 10:1 [1]: 0.15 pM; mean EC50 of cytotoxicity, CTL assay, Raji/GF (n = 5), human T cells E:T = 10:1 [1]: 0.31 pM; EC50 of autologous B cell depletion, human PBMCs, 0 nM ibrutinib, 48 hours [2]: 0.79 ng/mL; Kd [3]: 20300 pM; koff [3]: 0.0047 s⁻¹; kon [3]: 240000 M⁻¹ s⁻¹; Kd [4]: 2000 pM; koff [4]: 0.00056 s⁻¹; kon [4]: 280000 M⁻¹ s⁻¹; EC50 of cytotoxicity against Raji/GF target cells with cynomolgus monkey PBMCs as effector cells (E:T = 30:1) [5]: 0.013 pM; EC50 of redirected killing of HBL-2 cells, human T cells, E:T 10:1 (average) [5]: 10.5 pM; EC50 of redirected killing of Jeko-1 cells, human T cells, E:T 10:1 (average) [5]: 0.146 pM; EC50 of redirected killing of Raji/GF cells, human T cells, E:T 10:1 (average) [5]: 0.307 pM; binding result [6]: binds; binding result [7]: binds; EC50 of redirected killing of Raji/GF cells, E:T = 2.5:1, 48 hours [8]: 1.08 pM; EC50 of redirected killing of Raji/GF cells, E:T = 5:1, 24 hours [8]: 0.67 pM; EC50 of redirected killing of Raji/GF cells, E:T = 5:1, 48 hours [8]: 0.38 pM; EC50 of redirected killing of Raji/GF cells, E:T = 10:1, 24 hours [8]: 0.14 pM; EC50 of redirected killing of Raji/GF cells, E:T = 10:1, 48 hours [8]: 0.0441 pM; EC50 of redirected killing of Raji/GF cells, E:T = 1:1, 72 hours [9]: 2.79 pM; EC50 of redirected killing of Raji/GF cells, E:T = 1:1, 96 hours [9]: 0.44 pM; EC50 of redirected killing of Raji/GF cells, E:T = 2.5:1, 72 hours [9]: 1.54 pM; EC50 of redirected killing of Raji/GF cells, E:T = 2.5:1, 96 hours [9]: 0.422 pM
